Test results as given in patent US20040219637A1.

How the values were obtained:
[1] = molecular target: Crotalus durissus terrificus venom; test: ELISA, venom coat, dilution 1:3125
[2] = molecular target: Crotalus durissus terrificus venom; test: ELISA, venom coat, dilution 1:625
[3] = molecular target: Crotalus durissus terrificus venom; test: ELISA, venom coat, dilution 1:62,500
[4] = molecular target: Crotalus durissus terrificus venom; test: ELISA, venom coat, dilution 1:312,500
[5] = molecular target: Crotalus durissus terrificus venom; test: ELISA, venom coat, dilution 1:3125; remark: listed apart in the source
[6] = molecular target: Crotalus durissus terrificus venom; test: ELISA, venom coat, dilution 1:125
[7] = molecular target: Crotalus durissus terrificus venom; test: ELISA, venom coat, dilution 1:5
[8] = molecular target: Crotalus durissus terrificus venom; test: ELISA, venom coat, dilution 1:25
[9] = molecular target: Crotalus durissus terrificus venom; test: ELISA, venom coat, undiluted
[10] = molecular target: Crotalus durissus terrificus venom; test: ELISA, venom coat, dilution 1:625; remark: listed apart in the source
[11] = molecular target: Crotalus durissus terrificus venom; test: ELISA, venom coat, dilution 1:125; remark: listed apart in the source
[12] = molecular target: Crotalus durissus terrificus venom; test: ELISA, venom coat, dilution 1:25; remark: listed apart in the source

## Preimmune IgY (egg yolk antibody of unimmunized hens)
[1]
  ELISA absorbance: < 0 absorbance
[2]
  ELISA absorbance: 0 absorbance
[3]
  ELISA absorbance (412 nm): 0.001 absorbance
[4]
  ELISA absorbance (412 nm): 0.01 absorbance
[5]
  ELISA absorbance: 0.002 absorbance
[6]
  ELISA absorbance: 0.003 absorbance
[7]
  ELISA absorbance: < 0 absorbance
[8]
  ELISA absorbance: 0 absorbance
[9]
  ELISA absorbance: 0.003 absorbance
[10]
  ELISA absorbance: < 0 absorbance
[11]
  ELISA absorbance: < 0 absorbance
[12]
  ELISA absorbance: 0.016 absorbance
